In patent US20040043378A1:

What was measured:
[1] = target: lysine-acetylated histone H4 peptide SGRGKGG-AcK-GLGK (Lys8 acetylated); experiment: NMR titration, amide chemical shift changes in 15N-HSQC spectra against ligand concentration
[2] = target: histone H4 AcK16 peptide …-AcK-RHRK (SEQ ID NO:59); experiment: NMR 2D 1H-15N HSQC titration; 'binds weakly'
Sequence of histone H4 AcK16 peptide …-AcK-RHRK (SEQ ID NO:59) (peptide, as listed by the source): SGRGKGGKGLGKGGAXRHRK

Kd [1] [µM]	Kd [2] [µM]	Binder
346		P/CAF bromodomain (residues 719-832 of human p300/CBP-associated factor), wild-type, Q92831 719-832 (protein) SKEPRDPDQLYSTLKSILQQVKSHQSAWPFMEPVKRTEAPGYYEVIRFPMDLKTMSERLKNRYYVSKKLFMADLQRVFTNCKEYNAAESEYYKCANILEKFFFSKIKEAGLIDK
	< 300	bromodomain of P/CAF (residues 719-832 of SEQ ID NO:2), Q92831 719-832 (protein) SKEPRDPDQLYSTLKSILQQVKSHQSAWPFMEPVKRTEAPGYYEVIRFPMDLKTMSERLKNRYYVSKKLFMADLQRVFTNCKEYNAAESEYYKCANILEKFFFSKIKEAGLIDK
